From patent US20180094059A1 (published 2018)

What was measured:
[1] = molecular target: HT1080; experiment: flow cytometry; HT1080 cells
[2] = molecular target: Colo 205; experiment: flow cytometry; Colo205 cells
[3] = molecular target: TRAIL-R2-Fc (human, UniProt O14763 56-210); experiment: ELISA

| Binder | EC50 [1] | EC50 [2] | EC50 [3] |
| --- | --- | --- | --- |
| Db10-Glyco-scTRAIL3-FAVSGAA (other, glycosylated connecting peptide) LEASDYKDDDDKGAEVQLVESGGGLVQPGGSLRLSCAASGFSLTNYGVHWVRQAPGKGLEWLGVIWSGGNTDYNTPFTSRFTISRDNSKNTLYLQMNSLRAEDTAVYYCARALTYYDYEFAYWGQGTTVTVSSGGGGSGGGGSDIQLTQSPSFLSASVGDRVTITCRASQSIGTNIHWYQQKPGKAPKLLIKYASESISGVPSRFSGSGSGTEFTLTISSLQPEDFATYYCQQNNNWPTTFGAGTKLEIKRAAAGNGTSNGTSEFGGAAAHITGTRGRSNTLSSPNSKNEKALGRKINSWESSRSGHSFLSNLHLRNGELVIHEKGFYYIYSQTYFRFQEEIKENTKNDKQMVQYIYKYTSYPDPILLMKSARNSCWSKDAEYGLYSIYQGGIFELKENDRIFVSVTNEHLIDMDHEASFFGAFAVSGAAAHITGTRGRSNTLSSPNSKNEKALGRKINSWESSRSGHSFLSNLHLRNGELVIHEKGFYYIYSQTYFRFQEEIKENTKNDKQMVQYIYKYTSYPDPILLMKSARNSCWSKDAEYGLYSIYQGGIFELKENDRIFVSVTNEHLIDMDHEASFFGAFAVSGAAAHITGTRGRSNTLSSPNSKNEKALGRKINSWESSRSGHSFLSNLHLRNGELVIHEKGFYYIYSQTYFRFQEEIKENTKNDKQMVQYIYKYTSYPDPILLMKSARNSCWSKDAEYGLYSIYQGGIFELKENDRIFVSVTNEHLIDMDHEASFFGAFAVS | 3 nM | – | – |
| scTRAIL3-FAVGGAA (ligand) LDDYKDDDDKEFGGAAAHITGTRGRSNTLSSPNSKNEKALGRKINSWESSRSGHSFLSNLHLRNGELVIHEKGFYYIYSQTYFRFQEEIKENTKNDKQMVQYIYKYTSYPDPILLMKSARNSCWSKDAEYGLYSIYQGGIFELKENDRIFVSVTNEHLIDMDHEASFFGAFAVGGAAAHITGTRGRSNTLSSPNSKNEKALGRKINSWESSRSGHSFLSNLHLRNGELVIHEKGFYYIYSQTYFRFQEEIKENTKNDKQMVQYIYKYTSYPDPILLMKSARNSCWSKDAEYGLYSIYQGGIFELKENDRIFVSVTNEHLIDMDHEASFFGAFAVGGAAAHITGTRGRSNTLSSPNSKNEKALGRKINSWESSRSGHSFLSNLHLRNGELVIHEKGFYYIYSQTYFRFQEEIKENTKNDKQMVQYIYKYTSYPDPILLMKSARNSCWSKDAEYGLYSIYQGGIFELKENDRIFVSVTNEHLIDMDHEASFFGAFAVG | – | 4.1 nM | 5.25 nM |
| scTRAIL3-FLVGGVA (ligand) LDDYKDDDDKEFGGVAAHITGTRGRSNTLSSPNSKNEKALGRKINSWESSRSGHSFLSNLHLRNGELVIHEKGFYYIYSQTYFRFQEEIKENTKNDKQMVQYIYKYTSYPDPILLMKSARNSCWSKDAEYGLYSIYQGGIFELKENDRIFVSVTNEHLIDMDHEASFFGAFLVGGVAAHITGTRGRSNTLSSPNSKNEKALGRKINSWESSRSGHSFLSNLHLRNGELVIHEKGFYYIYSQTYFRFQEEIKENTKNDKQMVQYIYKYTSYPDPILLMKSARNSCWSKDAEYGLYSIYQGGIFELKENDRIFVSVTNEHLIDMDHEASFFGAFLVGGVAAHITGTRGRSNTLSSPNSKNEKALGRKINSWESSRSGHSFLSNLHLRNGELVIHEKGFYYIYSQTYFRFQEEIKENTKNDKQMVQYIYKYTSYPDPILLMKSARNSCWSKDAEYGLYSIYQGGIFELKENDRIFVSVTNEHLIDMDHEASFFGAFLVG | – | 12.7 nM | – |
| scTRAIL3-FLVGGAA (ligand) LDDYKDDDDKEFGGAAAHITGTRGRSNTLSSPNSKNEKALGRKINSWESSRSGHSFLSNLHLRNGELVIHEKGFYYIYSQTYFRFQEEIKENTKNDKQMVQYIYKYTSYPDPILLMKSARNSCWSKDAEYGLYSIYQGGIFELKENDRIFVSVTNEHLIDMDHEASFFGAFLVGGAAAHITGTRGRSNTLSSPNSKNEKALGRKINSWESSRSGHSFLSNLHLRNGELVIHEKGFYYIYSQTYFRFQEEIKENTKNDKQMVQYIYKYTSYPDPILLMKSARNSCWSKDAEYGLYSIYQGGIFELKENDRIFVSVTNEHLIDMDHEASFFGAFLVGGAAAHITGTRGRSNTLSSPNSKNEKALGRKINSWESSRSGHSFLSNLHLRNGELVIHEKGFYYIYSQTYFRFQEEIKENTKNDKQMVQYIYKYTSYPDPILLMKSARNSCWSKDAEYGLYSIYQGGIFELKENDRIFVSVTNEHLIDMDHEASFFGAFLVG | – | 4.2 nM | – |
